These results are taken from US20250043285A1 (UNM RAINFOREST INNOVATIONS, published 2025).

Experiment [1] addresses T1, Myc-UEV^VPS37A (UEV domain of VPS37A only) (UniProt Q8NEZ2 23-217, [35S]-methionine radiolabel).
T1 construct: domain: UEV; the legend is followed; The limits 23-217 are stated for the AlphaFold input, not expressly for the clone; also called Myc-UEV^VP37A; not shown: Myc tag
T1 sequence (looked up): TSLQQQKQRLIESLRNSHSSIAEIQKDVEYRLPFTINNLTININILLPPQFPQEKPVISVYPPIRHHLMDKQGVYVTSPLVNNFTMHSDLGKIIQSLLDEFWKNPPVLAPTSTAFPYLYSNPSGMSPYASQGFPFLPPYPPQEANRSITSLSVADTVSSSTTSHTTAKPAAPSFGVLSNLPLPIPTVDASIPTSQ
Kind of experiment: GST pulldown of in vitro translated Myc-tagged protein (FIG. 7C). The text has this: (§1) 7A, Co-IP analysis of interactions between FLAG-VPS37A and GFP-LC3A and GFP-GABARAP (GABA) in HEK293T cells. 5% of input was loaded. 7B, Schematic of VPS37A full length and deletion constructs: (i) VPS37A^FL, full length, (ii) VPS37A^deltaUEV deletion of UEV (cyan), (iii) UEV^VPS37A, UEV domain only (cyan), (iv) VPS37A^{deltaN(1-90)} deletion of residues 1-90, (v) VPS37A^{deltaN(1-20)}, deletion of residues 1-20 (red), (vi) VPS37A^{Nter-EGFP}, N-ter 1-22 chimera with GFP. 7C, GST-Pull down of Myc-UEV^VP37A and Myc-VPS37AdeltaCEV with GST or GST-LC3A, GST-LC3C and GST-GABARAP, 2% of Input was loaded. 7D, Co-IP between GFP-LC3A with FLAG-VPS37A^FL, UEV^VPS37A and VPS37A^deltaCEV. 7E, VPS37AdeltaCEV AlphaFold predicted structure; sequence, 1-22 residues, N-terminus of VPS37A (red, residues predicted to contact mATG8s. 7F, Representation of AlphaFold predicted complexes (rank 1; VPS37A^deltaCEV and GABARAP). 7G,7H Co-IP analyses in HEK293T cells expressing FLAG-VPS37A and GFP-LC3A (in 7H) or GFP-GABARAP (in 7G).
GST pull-down Assay. Recombinant GST and GST-fusion proteins were produced in Escherichia coli SoluBL21 (Genlantis, #C700200) by inducing expression in overnight cultures with 50-75 μg/mL isopropyl β-D-1-thiogalactopyranoside (IPTG). Expressed proteins were purified by immobilization on Glutathione Sepharose 4 Fast Flow beads (GE Healthcare, #17-5132-01). […]

A further experiment has as its target GST-LC3B (UniProt Q9GZQ8 1-125). Kind of experiment: GST pulldown of in vitro translated [35S] Myc-VPS37A. From the text: Myc-VPS37A with GST or GST tagged LC3A, LC3B, LC3C, GABARAP, GABARAP-L1 and GABARAP-L2. 2% of input was loaded. 1B, AlphaFold predicted complexes between VPS37^{AdeltaCEV} and GABARAP. 1C, Schematic representation of HaloTag (HT)-LC3B MIL/MPL assay adapted for quantitative high content microscopy (HCM). MIL⁺ profiles, HT-LC3B accessible to membrane impermeant ligand; MPL⁺ profiles, HT-LC3B remaining available (not saturated with MIL) to membrane permeant ligand. 1D, MIL/MPL assay in HeLa^WT and HeLa^HexaKO expressing HT-LC3B, starved in EBSS for 90 min±100 nM BafA1. Cells were sequentially incubated with HT ligands MIL and MPL, and HCM quantification carried out; (d-i) MIL-accessible membrane-bound HT-LC3B; (d-ii) MPL-accessible membrane-bound HT-LC3B (remaining available to MPL after MIL saturation). (d-iii) MIL/MPL puncta ratio. […]

Experiment [2] has as its target T2, FLAG-VPS37A (full length) (UniProt Q8NEZ2 1-397).
T2 construct: Expressed in HEK293T cells for Co-IP; also called FLAG-VPS37A^FL; pDest-FLAG-VPS37A^Full; not shown: FLAG tag
T2 sequence (looked up): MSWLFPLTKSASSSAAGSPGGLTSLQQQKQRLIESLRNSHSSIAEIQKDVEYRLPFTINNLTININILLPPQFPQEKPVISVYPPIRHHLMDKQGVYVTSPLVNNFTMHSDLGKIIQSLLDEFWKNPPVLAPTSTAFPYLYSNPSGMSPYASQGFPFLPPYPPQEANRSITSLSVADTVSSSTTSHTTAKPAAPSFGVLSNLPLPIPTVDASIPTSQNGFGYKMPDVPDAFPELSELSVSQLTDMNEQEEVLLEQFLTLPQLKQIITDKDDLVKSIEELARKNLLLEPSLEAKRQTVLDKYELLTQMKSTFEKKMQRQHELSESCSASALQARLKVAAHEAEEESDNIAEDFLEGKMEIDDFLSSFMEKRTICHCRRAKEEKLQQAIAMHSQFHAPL
Kind of experiment: Co-IP of FLAG-VPS37A and GFP-GABARAP in HEK293T cells (FIG. 7A).
Source text: as §1
Immunoblotting and co-immunoprecipitation assays. Immunoblotting and co-immunoprecipitation (Co-IP) were performed as described previously⁴. For Co-IP, 10 cm dish cells were transfected with 12 μg of plasmids, wherever stated, and lysed in NP-40 buffer containing protease inhibitor cocktail (Roche, cat #11697498001) and PMSF (Sigma, cat #93482). […]

B1: GST-GABARAP (other, UniProt O95166 1-117, looked up)
chain: MKFVYKEEHPFEKRRSEGEKIRKKYPDRVPVIVEKAPKARIGDLDKKKYLVPSDLTVGQFYFLIRKRIHLRAEDALFFFVNNVIPPTSATMGQLYQEHHEEDFFLYIAYSDESVYGL
notes: Recombinant, made in E. coli, held on glutathione Sepharose beads; not shown: GST tag
With B1, the binding result in experiment [1] is listed as “no binding”.

B2: GST-LC3C (other, UniProt Q9BXW4 1-147, looked up)
chain: MPPPQKIPSVRPFKQRKSLAIRQEEVAGIRAKFPNKIPVVVERYPRETFLPPLDKTKFLVPQELTMTQFLSIIRSRMVLRATEAFYLLVNNKSLVSMSATMAEIYRDYKDEDGFVYMTYASQETFGCLESAAPRDGSSLEDRPCNPL
notes: Recombinant, made in E. coli, held on glutathione Sepharose beads; also called GTS-LC3C; not shown: GST tag
Take B2: in experiment [1], the binding result is listed as “no binding”.

B3: Myc-VPS37A (in vitro translated, [35S]-radiolabeled, full length) (other)
chain: MSWLFPLTKSASSSAAGSPGGLTSLQQQKQRLIESLRNSHSSIAEIQKDVEYRLPFTINNLTININILLPPQFPQEKPVISVYPPIRHHLMDKQGVYVTSPLVNNFTMHSDLGKIIQSLLDEFWKNPPVLAPTSTAFPYLYSNPSGMSPYASQGFPFLPPYPPQEANRSITSLSVADTVSSSTTSHTTAKPAAPSFGVLSNLPLPIPTVDASIPTSQNGFGYKMPDVPDAFPELSELSVSQLTDMNEQEEVLLEQFLTLPQLKQIITDKDDLVKSIEELARKNLLLEPSLEAKRQTVLDKYELLTQMKSTFEKKMQRQHELSESCSASALQARLKVAAHEAEEESDNIAEDFLEGKMEIDDFLSSFMEKRTICHCRRAKEEKLQQAIAMHSQFHAPL
modifications: [35S]-methionine radiolabel
notes: In vitro translated in reticulocyte lysate; also called VPS37A^FL; not shown: Myc tag
B3: the binding result with GST-LC3B was “no binding”.

B4: GFP-GABARAP (other, UniProt O95166 1-116, looked up)
chain: MKFVYKEEHPFEKRRSEGEKIRKKYPDRVPVIVEKAPKARIGDLDKKKYLVPSDLTVGQFYFLIRKRIHLRAEDALFFFVNNVIPPTSATMGQLYQEHHEEDFFLYIAYSDESVYG
notes: Expressed in HEK293T cells for Co-IP; also called GFP-GABARAP (GABA); pDest-GFP-GABARAP; not shown: GFP
Take B4: the binding result in experiment [2] was “binds”.
